Measured values: patent US20090023139A1, “Method For Site-Specifically Introducing Non-Natural Amino Acid Into Protien Using Mitochondrial Protein and Method For Effectively Preparing Trna” (priority 2004, published 2009)

B1: mtWRS: yeast (Saccharomyces cerevisiae) mitochondrial tryptophanyl tRNA synthetase, SEQ ID NO: 2, His-tagged, expressed from pYC2WRS (protein)
chain: ISTVQRADFKLNSEALHSNATVFSMIQPTGCFHLGNYLGATRVWTDLCELKQPGQELIFGVADLHAITVPKPDGEMFRKFRHEAVASILAVGVDPEKASVIYQSAIPQHSELHWLLSTLASMGLLNRMTQWKSKSNIKQSTNGDYLVNDSDVGKVRLGLFSYPVLQAADILLYKSTHVPVGDDQSQHLELTRHLAEKFNKMYKKNFFPKPVTMLAQTKKVLSLSTPEKKMSKSDPNHDSVIFLNDEPKAIQKKIRKALTDSISDRFYYDPVERPGVSNLINIVSGIQRKSIEDVVEDVSRFNNYRDFKDYVSEVIIEELKGPRTEFEKYINEPTYLHSVVESGMRKAREKAAKNLADIHKIMGF
modifications: His tag
B2: C5 protein: protein component of E. coli RNase P (rnpA gene), expressed from pETC5 (protein, UniProt P0A7Y8 1-119, looked up)
Ribonuclease P protein …: MVKLAFPRELRLLTPSQFTFVFQQPQRAGTPQITILGRLNSLGHPRIGLTVAKKNVRRAHERNRIKRLTRESFRLRQHELPAMDFVVVAKKGVADLDNRALSEALEKLWRRHCRLARGS

What was measured:
[1] = test system: mt tRNA^Trp; assay: Assay of aminoacylation activity using 14C tryptophan; format: biochemical, yeast; conditions: 30° C., 0-16 minutes; mtWRS with mt tRNA^Trp; FIG. 11
Method: In order to assay enzyme activity, aminoacylation was carried out using ^14C tryptophan. The reaction solution having the composition shown below was heated at 30° C. for about 5 minutes while the enzyme was removed therefrom. Thereafter, the enzyme was added, the mixture was incubated at 30° C., the mixture was spotted on a filter wetted with 5% TCA 0, 1, 4, 9, and 16 minutes after incubation, and the filter was then soaked in 5% TCA. After spotting of the reaction solution at each time point was completed, 5% TCA was discarded, and fresh 5% TCA was added to the beaker, followed by shaking for 10 minutes. This procedure was repeated twice, 100% ethanol was added, and the mixture was lightly shaken, followed by dehydration under an electric heat. Thereafter, the resultant was soaked in a scintillator, and the samples were counted using a liquid scintillation counter.
The reaction solution for aminoacylation (50 μl) was prepared by diluting 10 μl of 5×AAM (aminoacylation mixture), 0.05 A260 units of mt tRNA^Trp, an adequate amount of enzyme (depending on the concentration), and 2 μl of ^14C tryptophan in dH2O.
The 5×AAM (aminoacylation mixture) comprised 500 mM Tris-HCl (pH 7.6), 50 mM MgCl2, 200 mM KCl, and 20 mM ATP.
A scintillator (1 liter) was prepared by diluting 4 g of Dotite DPO and 0.1 g of Dotite POPOP in toluene.

[2] = test system: tRNA^Tyr precursor having on the 5′ end an additional sequence; assay: Confirmation of C5 protein and M1 RNA (RNase P) cleavage activity; format: biochemical; conditions: 150 pmol tRNA^Tyr precursor; 7M urea denatured polyacrylamide gel, methylene blue; FIG. 7
Method: In order to assay enzyme activity, 150 pmol of the tRNA^Tyr precursor having on the 5′ end an additional sequence was subjected to the reaction with 30 pmol of C5 proteins and […] of M1 RNA. The reaction buffer comprises 50 mM Tris-HCl (pH 7.4), 10 mM MgCl2, and 100 mM NH4Cl. The reaction solution was separated using a 7M urea-containing denatured polyacrylamide gel, and nucleic acid components were stained with methylene blue.

Molecule | capacity of tRNA for accepting 14C-tryptophan [1] | cleavage activity [2]
B1 | acceptance of tryptophan was observed | 
B2 |  | Cleavage activity could not be confirmed
